Target: PrnA (Pseudomonas fluorescens, UniProt P95480)
Assay: Halogenation by PrnA expressed in transgenic plants, immunopurified and assayed in vitro (Example 5)
Assay type: biochemical
Set-up: made in house; host or cells: Transgenic Arabidopsis thaliana (Columbia) lines 3 and 12; leaf extract immunopurified on goat anti-PrnA sera with anti-goat-IgG-agarose
Conditions: immunopurified PrnA with Fre (20 microliter, 21 microgram/ml), overnight
Experimental: Arabidopsis thaliana, ecotype Columbia, is transformed (by the Agrobacterium-mediated transformation method) with the four nucleic acid molecules of the pyrrolnitrin operon, encoding PrnA, PrnB, PrnC & PrnD, each behind the ubiquitin promoter as described below in Example 6.
Two transformed lines (3 and 12) and a nontransformed control line are grown and leaves (1 g) harvested. The leaves are frozen in liquid N2, powdered in a mortar and extracted with 6 ml of LS buffer (50 mM HEPES, pH 7.5, 5 mM NaCl). After centrifugation at 5000×g for 15 min to pellet debris, the supernate is filtered through glass wool to remove residual particles.
PrnA is immunopurified by mixing extract (3 ml) with an affinity matrix. The affinity matrix is prepared by mixing for 30 minutes, at room temperature, 100 microliters of rabbit antigoat-IgG-agarose (purchased from Sigma) with 50 microliters of goat anti-PrnA sera. Then the agarose beads are washed three times with 1 ml of LS buffer. After mixing the 3 ml sample with the affinity matrix, unabsorbed material is removed from the beads by washing with LS buffer. A positive control sample is prepared by mixing 5 microliter of PrnA (0.36 microgram/microliter) purified from Pseudomonas fluorescens as described in Example 1 with 3 ml LS then treating in parallel with the plant extract samples. […]

B1: PrnA: PrnA purified from Pseudomonas fluorescens, positive control added to non-transformed plant extract (protein)
chain: MNKPIKNIVIVGGGTAGWMAASYLVRALQQQANITLIESAAIPRIGVGEATIPSLQKVFFDFLGIPEREWMPQVNGAFKAAIKFVNWRKSPDPSRDDHFYHLFGNVPNCDGVPLTHYWLRKREQGFQQPMEYACYPQPGALDGKLAPCLSDGTRQMSHAWHFDAHLVADFLKRWAVERGVNRVVDEVVDVRLNNRGYISNLLTKEGRTLEADLFIDCSGMRGLLINQALKEPFIDMSDYLLCDSAVASAVPNDDARDGVEPYTSSIAMNSGWTWKIPMLGRFGSGYVFSSHFTSRDQATADFLKLWGLSDNQPLNQIKFRVGRNKRAWVNNCVSIGLSSCFLEPLESTGIYFIYAALYQLVKHFPDTSFDPRLSDAFNAEIVHMFDDCRDFVQAHYFTTSRDDTPFWLANRHDLRLSDAIKEKVQRYKAGLPLTTTSFDDSTYYETFDYEFKNFWLNGNYYCIFAGLGMLPDRSLPLLQHRPESIEKAEAMFASIRREAERLRTSLPTNYDYLRSLRDGDAGLSRGQRGPKLAAQESL
- level of 7-Cl-Trp found: 185 pmol

Reference: patent US20030135880A1, “Compositions and methods for halogenation reactions” (priority 2002, published 2003)
